The source of these data is PMC2925294.

Read-outs that look alike come from different tables or passages of the source.

What all share (test): cryo-EM structure
The target of test [1] is epsilon15 bacteriophage capsid stapling protein gp10 (epsilon15 bacteriophage).
Test [2] has the same target. The source holds these as a separate data set.
Test [3] deals with epsilon15 bacteriophage tail-spike (gp20) (epsilon15 bacteriophage).
Test [4] addresses epsilon15 bacteriophage tail hub (epsilon15 bacteriophage).

Broadly, the stoichiometry N is a count of units in the complex or per binding partner. For “epsilon15 bacteriophage capsid stapling protein gp10 (natural protein)”, the stoichiometry N in test [1] and in test [2] was 2 each time. “epsilon15 bacteriophage tail-spike (gp20) (natural protein)”: in test [3], the stoichiometry N is 3. The substance “epsilon15 bacteriophage tail hub (natural protein)” registered a stoichiometry N in test [4] of 6.
